The values below come from patent publication JP2024517985A (dated 2024).

Assay [1] concerns the target T1, CD300c抗原(11832-H08H、Sino Biological) (UniProt Q08708 21-183).
T1 construct: Bought recombinant protein; also called CD300c; CD300c antigen
T1 sequence (looked up): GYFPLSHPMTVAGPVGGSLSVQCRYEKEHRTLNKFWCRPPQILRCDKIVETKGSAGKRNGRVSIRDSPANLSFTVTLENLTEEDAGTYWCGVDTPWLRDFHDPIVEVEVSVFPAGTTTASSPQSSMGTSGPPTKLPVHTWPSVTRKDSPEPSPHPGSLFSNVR
As to the kind of experiment: SPR, CD300c immobilised on CM5 chip, CL7 as analyte 0-6.25 ug/ml.

Assay [2] has as its target T2, 293T細胞及びTHP-1細胞の表面で過剰発現されたCD300c (UniProt Q08708 21-224, limits assumed).
T2 construct: whole, on cells; Expression construct not described; also called CD300c overexpressed on 293T cells; CD300c overexpressed on THP-1 cells
T2 sequence (looked up): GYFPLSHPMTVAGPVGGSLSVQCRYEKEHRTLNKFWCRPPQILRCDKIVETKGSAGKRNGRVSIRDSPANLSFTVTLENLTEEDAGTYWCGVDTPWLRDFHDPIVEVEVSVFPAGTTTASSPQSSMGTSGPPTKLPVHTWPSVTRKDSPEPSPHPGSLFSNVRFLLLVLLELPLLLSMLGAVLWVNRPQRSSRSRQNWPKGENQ
As to the kind of experiment: flow cytometry (MFI) on 293T cells overexpressing CD300c, FITC anti-human IgG (H+L). A general note: Flow cytometry measures light scatter and fluorescence of single cells or particles in a stream.

The target in assay [3] is T2, 293T細胞及びTHP-1細胞の表面で過剰発現されたCD300c. Kind of assay: flow cytometry (MFI) on THP-1 cells overexpressing CD300c, FITC anti-human IgG (H+L).
Assay [4] addresses T1, CD300c抗原(11832-H08H、Sino Biological). As to the kind of experiment: SPR, CD300c immobilised on CM5 chip, CL7 as analyte 0-6.25 ug/ml (rounded form of the same KD).

B1: 抗-CD300cモノクローナル抗体 CL7 (antibody, V domains shown)
VH: EVQLLESGGGLVQPGGSLRLSCAASGFTFSRYAMSWVRQAPGKGLEWVSAISGSGGSTYYADSVKGRFTISRDNSKNTLYLQMNSLRAEDTAVYYCARSSQGIFDIWGQGTLVTVSS
VL: QSVLTQPPSASGTPGQRVTISCSGNNIGTRRVHWYQQLPDTAPKLLIYSKNNRPSGVPDRFSGSKSGTSASLAISGLRSEDEADYYCAAWDDSLSGPVFGGGTKLTVL
The Kd is a measure of binding affinity in units of concentration. Low values mean tighter binding, high ones weaker binding. The EC50 is the midpoint of the concentration-response curve. Consider B1, for which the dissociation constant Kd in assay [1] and in assay [4] was 0.52 nM each time. In addition, the results for the EC50 in assay [2] and in assay [3] were 2.7 nM and 2.6 nM, respectively.
